From PMC3360035 (PLoS ONE, 2012)

Biological target: Human γD-crystallin I90F (human, UniProt P07320 1-174, I90F)
Experiment: cell-based or functional assay

B1: αB-crystallin, wild type (natural protein, UniProt P02511 1-175, looked up)
chain: MDIAIHHPWIRRPFFPFHSPSRLFDQFFGEHLLESDLFPTSTSLSPFYLRPPSFLRAPSWFDTGLSEMRLEKDRFSVNLDVKHFSPEELKVKVLGDVIEVHGKHEERQDEHGFISREFHRKYRIPADVDPLTITSSLSSDGVLTVNGPRKQVSGPERTIPITREEKPAVTAAPKK
B1 was tested, and the “suppression of aggregation on dilution out of 5 M GdnHCl (from maximum A350), αB in 5-fold molar excess” value was 70%.
